# Positions count from the first letter of the chain named.
# B1: LV0HV1: humanized Lym2 antibody, VL LV0 (SEQ ID NO: 33), VH HV1 (SEQ ID NO: 51) (antibody, V domains shown)
# VH: EVQLVESGGGVVQPGRSLRLSCAASGFTFSNYYMAWVRQAPGKGLEWVATISYDGSSTYYRDSVKGRFTISRDNAKNSLYLQMNSLRAEDTATYYCARHRGYYYSGAGYFDYWGQGTMVTVSS
# VL: DIVMTQTPLSLPVTPGESASISCRSSQSLEYSDGYTYLEWYLQKPGQSPQVLIYGVSNRFSGVPDRFSGSGSGTDFTLKISRVEAEDVGVYYCFQATHDPLTFGQGTKLEIK
# Tests used:
# [1] = biological target: T1, mutated human CRTH2 with amino acid substitution (Homo sapiens, UniProt Q9Y5Y4, I180A/M181A); assay: Epitope analysis using CHO-S cells which express mutated human CRTH2 with amino acid substitution; type: binding; settings: mutant I180A and M181A; antibody 10 μg/mL; relative to wild-type = 100%
# T1 construct: inserting genes encoding various mutants with amino acid substitution obtained by deleting termination codons; expressed in transfected cells; host or cells: CHO-S cells (Lifetechnologies), transient (phmAG1-MNLinker vector)
# T1 sequence (Q9Y5Y4 1-395 I180A/M181A): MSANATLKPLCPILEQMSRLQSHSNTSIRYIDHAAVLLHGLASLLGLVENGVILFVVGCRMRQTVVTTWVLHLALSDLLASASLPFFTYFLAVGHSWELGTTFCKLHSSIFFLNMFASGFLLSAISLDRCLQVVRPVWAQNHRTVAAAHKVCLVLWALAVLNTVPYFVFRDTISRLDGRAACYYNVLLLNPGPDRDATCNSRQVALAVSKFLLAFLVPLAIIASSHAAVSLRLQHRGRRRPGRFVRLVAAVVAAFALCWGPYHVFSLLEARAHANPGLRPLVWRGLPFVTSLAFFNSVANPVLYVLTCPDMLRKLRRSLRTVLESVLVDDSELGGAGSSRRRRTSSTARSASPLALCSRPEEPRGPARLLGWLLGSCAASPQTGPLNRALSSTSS
# Procedure, shortened: (§1)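 CHO-S cells transiently expressing alanine-substituted human CRTH2 extracellular mutants, C-terminally Azami-Green tagged, 24 h post-transfection. Antibodies at 10 μg/mL, 4 °C 1 h, then Alexa647 anti-IgG secondary 4 °C 1 h; flow cytometry on Azami-Green-positive cells. Reactivity = Alexa647 intensity divided by Azami-Green intensity.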
# [2] = biological target: T2, mutated human CRTH2 with amino acid substitution (Homo sapiens, UniProt Q9Y5Y4, D196A/T198A); assay: as above; type: binding; settings: mutant D196A and T198A; antibody 10 μg/mL; relative to wild-type = 100%
# T2 construct: inserting genes encoding various mutants with amino acid substitution obtained by deleting termination codons; expressed in transfected cells; host or cells: CHO-S cells (Lifetechnologies), transient (phmAG1-MNLinker vector)
# T2 sequence (Q9Y5Y4 1-395 D196A/T198A): T1 sequence (Q9Y5Y4 1-395 I180A/M181A) with A180I, A181M, D196A, T198A
# Procedure, shortened: as §1
molecule,measurement,setting,value
B1,reactivity against cells expressing mutated human CRTH2,[1],lost
same,reactivity against cells expressing mutated human CRTH2,[2],lost
